Substrate in the series “purified protein”: Nc1ccn([C@@H]2O[C@H](CO)[C@@H](O)[C@H]2O)c(=O)n1
Put plainly: purified protein. The note with it: Tris-HCl pH 7.5.

Substrate in series [1]: Nc1ncnc2c1ncn2[C@@H]1O[C@H](CO)[C@@H](O)[C@H]1O
The series can be described thus: HILIC-HPLC of released nucleobase, Michaelis-Menten fit. The settings on record: Tris-HCl pH 7.5. The class given is biochemical, Limosilactobacillus reuteri. An excerpt: (§1) HILIC-HPLC of released nucleobase, Michaelis-Menten fit on LreRihC_HisC

Substrate in series [2]: O=c1[nH]c(=O)c2ncn([C@@H]3O[C@H](CO)[C@@H](O)[C@H]3O)c2[nH]1
The series is described as above. It counts as biochemical, Limosilactobacillus reuteri. The settings on record: Tris-HCl pH 7.5.
Excerpt: as §1

Substrate in series [3]: OC[C@H]1O[C@@H](n2cnc3c(O)ncnc32)[C@H](O)[C@@H]1O
The series is described as above. The class given is biochemical, Limosilactobacillus reuteri. The settings on record: Tris-HCl pH 7.5.
Excerpt: as §1

Series [4] concerns the molecule itself. Put plainly: SEC; analytical gel filtration on HiLoad 16/600 Superdex 200 pg, 1 mg of sample applied, mass read from a calibration curve (Gel Filtration Calibration Kit HMW). (Size exclusion chromatography separates by hydrodynamic size, large species first.)
Substrate in series [5]: Nc1ncnc2c1ncn2[C@@H]1O[C@H](CO)[C@@H](O)[C@H]1O
Put plainly: HILIC-HPLC of released nucleobase, Michaelis-Menten fit. It counts as biochemical, Limosilactobacillus reuteri. The settings on record: Tris-HCl pH 7.5. The text has this:
(§2) HILIC-HPLC of released nucleobase, Michaelis-Menten fit on LreRihC_HisN
The source holds these as a separate data set.

Substrate in series [6]: O=c1[nH]c(=O)c2ncn([C@@H]3O[C@H](CO)[C@@H](O)[C@H]3O)c2[nH]1
The series is described as above. The note with it: Tris-HCl pH 7.5. The class given is biochemical, Limosilactobacillus reuteri.
Excerpt: as §2
This is another data set of the same source.

Substrate in series [7]: O=c1ccn([C@@H]2O[C@H](CO)[C@@H](O)[C@H]2O)c(=O)[nH]1
The series is described as above. The note with it: Tris-HCl pH 7.5. The class given is biochemical, Limosilactobacillus reuteri.
Excerpt: as §2

Substrate in series [8]: OC[C@H]1O[C@@H](n2cnc3c(O)ncnc32)[C@H](O)[C@@H]1O
The series is described as above. The settings on record: Tris-HCl pH 7.5. It counts as biochemical, Limosilactobacillus reuteri.
Excerpt: as §2
This is another data set of the same source.

B1: LreRihC_HisC (Limosilactobacillus reuteri) (protein)
chain: MTTKIIMDTDPGIDDAAALTMAINDPSLDLKLVTTVAGNVTADKTTANALKIIHFFGKDIPVAAGAKQPLIKPFEDAARIHGESGMPGYDFGDDYGKPLDKTAVEALHDAIMAEDEVILVPTGSYTNIALLFSEYPEVKSHIKQIVAMGGSFSGGNMTSAAEFNVFTDPDAAKIMYNAGVPIVTVGLDVTLKALLTADTIEKLGSLNKTGEMLHGLITHYNDGNDQGRPMHDVNTIFYLLHPEAFTTKDMWVDIQTDGPAIGATVGDIRAAYHDGKTNAKVCLDIDAEYFNKWFLEEVSKMK
notes: E. coli BL21(DE3), pET24a(+); tetramer (123 kDa)
As for B1, the Km stood at 620 ± 60 µM in “purified protein”, 480 ± 90 µM in series [1], 1300 ± 200 µM in series [2] and 2600 ± 600 µM in series [3]. The catalytic constant (kcat) is 58 ± 6 s⁻¹ in the series “purified protein”, 65 ± 7 s⁻¹ in [1], 40 ± 6 s⁻¹ in [2] and 18 ± 6 s⁻¹ in series [3].

B2: ribonucleoside hydrolase C from Limosilactobacillus reuteri LR1 with the addition of His-tag to the C-terminus of the enzyme (enzyme, UniProt A5JJT3 1-302, looked up)
chain: B1 chain
notes: 308 residues and 33.38 kDa with the His-tag; PDB 8QND is the structure of the N-terminally tagged form of the same protein; source: E. coli BL21(DE3), purified (HisTrap FF, desalted on Sephadex G25); not shown: His6, C-terminal, kept
In the case of B2, the “stoichiometry N” value in series [4] was 4.

B3: ribonucleoside hydrolase C from Limosilactobacillus reuteri LR1 with the addition of His-tag to the N-terminus of the enzyme (enzyme, UniProt A5JJT3 1-302, looked up)
chain: B1 chain
notes: Ribonucleoside hydrolase C (RihC) of Limosilactobacillus reuteri LR1, cloned from genomic DNA with primers from the start codon to the stop codon; 308 residues and 33.38 kDa with the His-tag; The residue numbers printed for the crystal structure (D16, D20, D21, loop DGNDQ 228-232) seem to count on the tagged construct (surmised from the primer); Each subunit holds one Ca2+ ion; source: E. coli …
Consider B3, for which the “stoichiometry N” value in series [4] is 4.

B4: LreRihC_HisN (Limosilactobacillus reuteri) (protein)
chain: TTKIIMDTDPGIDDAAALTMAINDPSLDLKLVTTVAGNVTADKTTANALKIIHFFGKDIPVAAGAKQPLIKPFEDAARIHGESGMPGYDFGDDYGKPLDKTAVEALHDAIMAEDEVILVPTGSYTNIALLFSEYPEVKSHIKQIVAMGGSFSGGNMTSAAEFNVFTDPDAAKIMYNAGVPIVTVGLDVTLKALLTADTIEKLGSLNKTGEMLHGLITHYNDGNDQGRPMHDVNTIFYLLHPEAFTTKDMWVDIQTDGPAIGATVGDIRAAYHDGKTNAKVCLDIDAEYFNKWFLEEVSKMK
notes: E. coli BL21(DE3), pET24a(+); tetramer (121 kDa)
As for B4, the Km in “purified protein” is reported as 680 ± 80 µM; in [5], 420 ± 50 µM; in series [6] it was 1200 ± 200 µM; in series [7], 320 ± 40 µM; in series [8], 2500 ± 600 µM. In addition, the turnover number (kcat) in the series “purified protein” is 112 ± 4 s⁻¹; in [5], 118 ± 4 s⁻¹; in series [6] it was 57 ± 8 s⁻¹; in [7], 167 ± 6 s⁻¹; in series [8], 30 ± 5 s⁻¹.

The Km is the concentration of substrate that gives half-maximal velocity. Usually kcat stands for the maximal rate divided by the concentration of active sites. Broadly, the stoichiometry N is a count of units in the complex or per binding partner.

Source of the values: article PMC10778931, “Structure–Functional Examination of Novel Ribonucleoside Hydrolase C (RihC) from Limosilactobacillus reuteri LR1” (International Journal of Molecular Sciences, 2023).
